Assay results as given in patent publication US20220396614A1.

Molecular target: NANP 5.5-mer peptide, NP(NANP)5, representative of the PfCSP central repeat (Plasmodium falciparum (NF54))
Assay: SPR (FIG. 5E)

Row | Substance | Kd [nM] | fold lower affinity than mAb 4493 [fold]
1 | mAb 317 (antibody) | < 0.1 | 
2 | mAb CIS43 (antibody) |  | 100
